Measured values as given in paper PMC7858651, “Modulation of Increased mGluR1 Signaling by RGS8 Protects Purkinje Cells From Dendritic Reduction and Could Be a Common Mechanism in Diverse Forms of Spinocerebellar Ataxia” (Frontiers in Cell and Developmental Biology, 2020).

Legend:
[1] = target: T1, wild-type PKCγ-tGFP (UniProt P05129 1-697); experiment: co-IP; HEK293T cells expressing mGluR1, transfected with PKCγ-tGFP, PKCγ(S361G)-tGFP or tGFP alone; tGFP trap agarose beads (Chromotek); IPs blotted with anti-mGluR1 and anti-tGFP; amounts quantified and normalised to wild-type PKCγ-tGFP; conditions: partners not purified
T1 construct: Protein Kinase C gamma (PKCγ), wild type; plasmid pCMV-PKCγ-tGFP, a gift (Shimobayashi and Kapfhammer, 2017); also called WT PKCγ; source: HEK293T, transfected (pCMV-PKCγ-tGFP), in lysate

[2] = target: T2, PKCγ(S361G)-tGFP (human, UniProt P05129 1-697, S361G); experiment: as above; conditions: partners not purified
T2 construct: Protein Kinase C gamma (PKCγ) with the SCA14-associated human mutation S361G; plasmid pCMV-PKCγ(S361G)-tGFP, a gift (Shimobayashi and Kapfhammer, 2017); also called mutated PKCγ(S361G); mutant PKCγ(S361G); source: HEK293T, transfected (pCMV-PKCγ(S361G)-tGFP), in lysate

B1: metabotropic glutamate receptor 1 (mGluR1) (receptor, UniProt P97772 21-1199, looked up)
chain: RMPDRKVLLAGASSQRSVARMDGDVIIGALFSVHHQPPAEKVPERKCGEIREQYGIQRVEAMFHTLDKINADPVLLPNITLGSEIRDSCWHSSVALEQSIEFIRDSLISIRDEKDGLNRCLPDGQTLPPGRTKKPIAGVIGPGSSSVAIQVQNLLQLFDIPQIAYSATSIDLSDKTLYKYFLRVVPSDTLQARAMLDIVKRYNWTYVSAVHTEGNYGESGMDAFKELAAQEGLCIAHSDKIYSNAGEKSFDRLLRKLRERLPKARVVVCFCEGMTVRGLLSAMRRLGVVGEFSLIGSDGWADRDEVIEGYEVEANGGITIKLQSPEVRSFDDYFLKLRLDTNTRNPWFPEFWQHRFQCRLPGHLLENPNFKKVCTGNESLEENYVQDSKMGFVINAIYAMAHGLQNMHHALCPGYVGLCDAMKPIDGRKLLDFLIKSSFVGVSGEEVWFDEKGDAPGRYDIMNLQYTEANRYDYVHVGTWHEGVLNIDDYKIQMNKSGMVRSVCSEPCLKGQIKVIRKGEVSCCWICTACKENEFVQDEFTCRACDLGWWPNAELTGCEPITIRYLEWSDIESIIAIAFSCLGILVTLFVTLIFVLYRDTPVVKSSSRELCYIILAGIFLGYVCPFTLIAKPTTTSCYLQRLLVGLSSAMCYSALVTKTNRIARILAGSKKKICTRKPRFMSAWAQVIIASILISVQLTLVVTLIIMEPPMPILSYPSIKEVYLICNTSNLGVVAPVGYNGLLIMSCTYYAFKTRNVPANFNEAKYIAFTMYTTCIIWLAFVPIYFGSNYKIITTCFAVSLSVTVALGCMFTPKMYIIIAKPERNVRSAFTTSDVVRMHVGDGKLPCRSNTFLNIFRRKKPGAGNANSNGKSVSWSEPGGRQAPKGQHVWQRLSVHVKTNETACNQTAVIKPLTKSYQGSGKSLTFSDASTKTLYNVEEEDNTPSTHFSPPSSPSMVVHRRGPPVATTPPLPPHLSAEETPLFLADSVIPKGLPPPLPQQQQQPPPQPPPQQPKSLMDQLQGVVTNFGSGIPDFHAVLAGPGTPGNGLRSLYPPPPPPQHLQMLPLQLSTFREEPISPPGEDDDDDSSERFKLLQEFVYEREGNTEEDDLEEEEDLPAASKLTPEDSPALTPPSPFRDSVASGSSVPSSPVSESVLCTPPNVTYASVILRDYKQSSSTL
notes: metabotropic glutamate receptor 1 (mGluR1), expressed from the vector pCMV-mGluR1 bought from Origene; source: HEK293T, transfected (pCMV-mGluR1, Origene), in lysate
[1]
  relative amount bound, normalised to wild-type PKCγ-tGFP: 1 relative to wild-type PKCγ-tGFP
[2]
  relative amount bound, normalised to wild-type PKCγ-tGFP: 1.26 relative to wild-type PKCγ-tGFP
